Source: PMC10786891, “Massively parallel profiling of RNA-targeting CRISPR-Cas13d”
Positions count from the first letter of the chain named. Names may count otherwise.

T1: EsCas13d, nuclease-dead (Eubacterium siraeum, UniProt B0MS50, R295A;H300A;R849A;H854A)
T1 sequence: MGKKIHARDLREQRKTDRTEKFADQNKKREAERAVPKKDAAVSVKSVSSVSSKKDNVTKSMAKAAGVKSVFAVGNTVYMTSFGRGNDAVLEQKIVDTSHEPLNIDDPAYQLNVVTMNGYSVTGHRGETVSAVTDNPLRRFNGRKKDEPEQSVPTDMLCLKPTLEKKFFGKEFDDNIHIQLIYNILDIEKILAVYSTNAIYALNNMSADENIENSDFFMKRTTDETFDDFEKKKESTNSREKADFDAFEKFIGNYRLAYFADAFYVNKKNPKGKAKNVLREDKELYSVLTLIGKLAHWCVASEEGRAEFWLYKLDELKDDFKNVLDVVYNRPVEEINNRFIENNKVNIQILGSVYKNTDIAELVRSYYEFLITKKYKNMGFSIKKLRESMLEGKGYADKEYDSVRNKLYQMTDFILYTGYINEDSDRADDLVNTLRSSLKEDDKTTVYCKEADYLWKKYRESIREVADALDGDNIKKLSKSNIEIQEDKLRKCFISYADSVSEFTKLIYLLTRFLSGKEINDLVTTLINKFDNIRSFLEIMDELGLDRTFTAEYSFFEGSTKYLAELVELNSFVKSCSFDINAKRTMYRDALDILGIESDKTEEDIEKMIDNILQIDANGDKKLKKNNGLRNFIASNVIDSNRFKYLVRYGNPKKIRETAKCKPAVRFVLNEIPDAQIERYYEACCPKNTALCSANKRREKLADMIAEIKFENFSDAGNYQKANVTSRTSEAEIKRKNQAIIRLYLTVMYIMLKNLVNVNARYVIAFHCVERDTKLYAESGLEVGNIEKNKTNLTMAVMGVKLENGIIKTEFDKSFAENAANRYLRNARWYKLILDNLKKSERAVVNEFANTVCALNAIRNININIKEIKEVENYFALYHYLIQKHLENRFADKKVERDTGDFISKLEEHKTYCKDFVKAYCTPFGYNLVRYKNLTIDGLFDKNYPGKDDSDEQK

B1: target 3 insC 3' of 18,insC 3' of 11 (mixed)
RNA 1: CACCCGUGCAAAAUUGCAGGGGUCUAAAACGACCUGAAUAUUUCAGAUCAAA
RNA 2: GGGAAUGGAUCCACAUCUACGAAUUCGUUUUUGACUCUGAAACUAUUCAGGUCUGCAGAUCGGAAGAGCACACGU
B2: target 3 insC 3' of 5 (mixed)
RNA 1: B1 RNA 1
RNA 2: GGGAAUGGAUCCACAUCUACGAAUUCGUUUUUGAUCUGAAAUAUUCACGGUCUGCAGAUCGGAAGAGCACACGU
B3: target 3 insA 3' of 20,insU 3' of 19 (mixed)
RNA 1: B1 RNA 1
RNA 2: B1 RNA 2 with G33A, A34G, C35U, U36A, C37U, U38C, G39U, A40G, C43A
B4: target 1 insC 3' of 22,insU 3' of 6 (mixed)
RNA 1: CACCCGUGCAAAAAUGCAGGGGUCUAAAACUGAGCGGAUAACCUCUCUAUGG
RNA 2: GGGAAUGGAUCCACAUCUACGAAUUCGUACCCAUAGAGAGGUUAUCCUGCUCACCGAGAUCGGAAGAGCACACGU
B5: target 3 U21G,U22A (mixed)
RNA 1: B1 RNA 1
RNA 2: GGGAAUGGAUCCACAUCUACGAAUUCGUUAGUGAUCUGAAAUAUUCAGGUCUGCAGAUCGGAAGAGCACACGU
B6: target 3 insC 3' of 22,insG 3' of 5 (mixed)
RNA 1: B1 RNA 1
RNA 2: GGGAAUGGAUCCACAUCUACGAAUUCGUUUCUUGAUCUGAAAUAUUCAGGGUCUGCAGAUCGGAAGAGCACACGU
B7: target 3 insG 3' of 9,insC 3' of 3 (mixed)
RNA 1: B1 RNA 1
RNA 2: GGGAAUGGAUCCACAUCUACGAAUUCGUUUUUGAUCUGAAAUAGUUCAGGCUCUGCAGAUCGGAAGAGCACACGU
B8: target 3 del2,del8 (mixed)
RNA 1: B1 RNA 1
RNA 2: GGGAAUGGAUCCACAUCUACGAAUUCGUUUUUGAUCUGAAAUAUCAGGCUGCAGAUCGGAAGAGCACACGU
B9: target 3 U10C (mixed)
RNA 1: B1 RNA 1
RNA 2: B5 RNA 2 with A30U, G31U, U42C
B10: target 3 G3C,G4A (mixed)
RNA 1: B1 RNA 1
RNA 2: B5 RNA 2 with A30U, G31U, G48A, G49C
B11: target 3 insA 3' of 22,insA 3' of 2 (mixed)
RNA 1: B1 RNA 1
RNA 2: B6 RNA 2 with C31A, G51U, U52A
B12: target 3 complement block 5-7 (mixed)
RNA 1: B1 RNA 1
RNA 2: B5 RNA 2 with A30U, G31U, U45A, C46G, A47U
B13: target 3 del2 (mixed)
RNA 1: B1 RNA 1
RNA 2: GGGAAUGGAUCCACAUCUACGAAUUCGUUUUUGAUCUGAAAUAUUCAGGCUGCAGAUCGGAAGAGCACACGU
B14: target 3 U2G,A13U (mixed)
RNA 1: B1 RNA 1
RNA 2: B5 RNA 2 with A30U, G31U, A39U, U50G
B15: target 1 insU 3' of 22,insU 3' of 4 (mixed)
RNA 1: B4 RNA 1
RNA 2: B4 RNA 2 with C31U, U48G, G49C, C50U
B16: target 3 U2G,A12C (mixed)
RNA 1: B1 RNA 1
RNA 2: B5 RNA 2 with A30U, G31U, A40C, U50G
B17: target 3 insA 3' of 10,insA 3' of 2 (mixed)
RNA 1: B1 RNA 1
RNA 2: B7 RNA 2 with G44A, C51U, U52A
B18: target 3 insA 3' of 14,insU 3' of 5 (mixed)
RNA 1: B1 RNA 1
RNA 2: B7 RNA 2 with U42A, A43U, G44A, G49U, C51G
B19: target 3 insC 3' of 22,insG 3' of 2 (mixed)
RNA 1: B1 RNA 1
RNA 2: B6 RNA 2 with G51U, U52G
B20: target 3 del8 (mixed)
RNA 1: B1 RNA 1
RNA 2: B13 RNA 2 with U45C, C46A, A47G, G49U
B21: target 3 C6U,U7A (mixed)
RNA 1: B1 RNA 1
RNA 2: B5 RNA 2 with A30U, G31U, U45A, C46U
B22: target 3 insG 3' of 11,insA 3' of 6 (mixed)
RNA 1: B1 RNA 1
RNA 2: B7 RNA 2 with U42G, A43U, G44A, G49A, C51G
B23: target 3 U2G,A11C (mixed)
RNA 1: B1 RNA 1
RNA 2: B5 RNA 2 with A30U, G31U, A41C, U50G
B24: target 3 insA 3' of 21,insA 3' of 2 (mixed)
RNA 1: B1 RNA 1
RNA 2: B6 RNA 2 with C31U, U32A, G51U, U52A
B25: target 3 del1 (mixed)
RNA 1: B1 RNA 1
RNA 2: B13 RNA 2 with C50U
B26: target 1 insC 3' of 22,insG 3' of 11 (mixed)
RNA 1: B4 RNA 1
RNA 2: B4 RNA 2 with U43G, A44U, U45A, C46U, U48C
B27: target 3 insG 3' of 7,insG 3' of 5 (mixed)
RNA 1: B1 RNA 1
RNA 2: B7 RNA 2 with G44U, U46G, C51G
B28: target 3 insG 3' of 8,insG 3' of 5 (mixed)
RNA 1: B1 RNA 1
RNA 2: B7 RNA 2 with G44U, U45G, C51G
B29: target 3 insU 3' of 22,insA 3' of 19 (mixed)
RNA 1: B1 RNA 1
RNA 2: B1 RNA 2 with G33U, A34G, C35A, U36A, C37U, U38C, G39U, A40G, C43A
B30: target 3 G3A,A5U (mixed)
RNA 1: B1 RNA 1
RNA 2: B5 RNA 2 with A30U, G31U, A47U, G49A
B31: target 3 C1G,G4A (mixed)
RNA 1: B1 RNA 1
RNA 2: B5 RNA 2 with A30U, G31U, G48A, C51G

Target: T1, EsCas13d, nuclease-dead
Test: crRNA (strand 1, pre-loaded); Mg2+; 40 mM Tris-HCl pH 7.5, 150 mM NaCl, 6 mM MgCl2, 1 mM DTT, 0.1% Tween-20, 0.2 mg/ml BSA; 25 C; 10 min per concentration, then washed
Details: tags: His6-TwinStrep-SUMO cleaved; N-terminal SNAP kept (SNAP-Surface 488); label: 3' end held by stalled T7 RNA polymerase

In order of falling Kd:
1. B20  ~114 nM
2. B6  93.5 ± 26 nM
3. B22  91.5 ± 22 nM
4. B9  88 ± 22 nM
5. B29  77 ± 16 nM
6. B18  69.5 ± 12.5 nM
7. B23  63 ± 25.5 nM
8. B3  62.5 ± 14.5 nM
9. B28  62 ± 11 nM
10. B30  61.5 ± 8.5 nM
11. B19  59 ± 11 nM
12. B5  57.5 ± 15.5 nM
13. B17  56 ± 8.5 nM
14. B8  47 ± 8.5 nM
15. B14  46.5 ± 13.5 nM
16. B27  46.5 ± 7.5 nM
17. B7  42 ± 7 nM
18. B26  41 ± 4 nM
19. B21  40 ± 4.25 nM
20. B12  39.1 ± 2.9 nM
21. B1  37 ± 5 nM
22. B15  32 ± 5 nM
23. B24  30.3 ± 2.6 nM
24. B25  27.1 ± 2.55 nM
25. B11  24.9 ± 2.35 nM
26. B16  23.5 ± 4 nM
27. B4  20 ± 2 nM
28. B2  19.2 ± 1.75 nM
29. B31  15.9 ± 1.8 nM
30. B13  9.1 ± 0.7 nM
31. B10  6.6 ± 0.65 nM
